Changes are numbered by the printed parent chain.
T1: HSC-F (cynomolgus monkey, UniProt Q95LI8 22-171; Q95LI7 23-181)
T1 chain: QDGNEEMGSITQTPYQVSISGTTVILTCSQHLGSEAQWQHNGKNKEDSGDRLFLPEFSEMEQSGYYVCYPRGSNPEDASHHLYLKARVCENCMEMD

B1: IgG1-huCD3-H3L3-LFLEDA (antibody, V domains shown)
VH: EVKLVESGGGLVKPGRSLRLSCAASGFTFNTYAMNWVRQAPGKGLEWVARIRSKYNNYATYYADSVKDRFTISRDDSKSILYLQMNSLKTEDTAMYYCVRHGNFGNSYVSWFAYWGQGTLVTVSS
VL: QAVVTQEPSFSVSPGGTVTLTCRSSTGAVTTSNYANWVQQTPGQAFRGLIGGTNKRAPGVPARFSGSILGNKAALTITGAQADDESDYYCALWYSNLWVFGGGTKLTVL
B2: IgG1-huCD3-H4L3-LFLEDA (antibody, V domains shown)
VH: B1 VH with L120M
VL: B1 VL
B3: IgG1-huCD3-H1L3-LFLEDA (antibody, V domains shown)
VH: B1 VH with K13Q, R16G, I80S, S87N
VL: B1 VL
B4: IgG1-huCD3-H4L1-LFLEDA (antibody, V domains shown)
VH: B1 VH with L120M
VL: not shown
B5: bsIgG1-huCD3-H1L3×HER2-LFLEDA (bispecific antibody, V domains shown)
VH 1: B1 VH with K13Q, R16G, I80S, S87N
VL 1: B1 VL
VH 2: QVQLVQSGAEVKKPGASVKVSCKASGYTFTNYGISWVRQAPGQGLEWMGWLSAYSGNTIYAQKLQGRVTMTTDTSTTTAYMELRSLRSDDTAVYYCARDRIVVRPDYFDYWGQGTLVTVSS
VL 2: EIVLTQSPATLSLSPGERATLSCRASQSVSSYLAWYQQKPGQAPRLLIYDASNRATGIPARFSGSGSGTDFTLTISSLEPEDFAVYYCQQRSNWPRTFGQGTKVEIK
B6: bsIgG1-huCD3-H3L3×HER2-LFLEDA (bispecific antibody, V domains shown)
VH 1: B1 VH
VL 1: B1 VL
VH 2: B5 VH 2
VL 2: B5 VL 2
B7: bsIgG1-huCD3-H4L1×HER2-LFLEDA (bispecific antibody, V domains shown)
VH 1: B1 VH with L120M
VL 1: not shown
VH 2: B5 VH 2
VL 2: B5 VL 2
B8: bsIgG1-huCD3-H4L3×HER2-LFLEDA (bispecific antibody, V domains shown)
VH 1: B1 VH with L120M
VL 1: B1 VL
VH 2: B5 VH 2
VL 2: B5 VL 2
B9: IgG1-huCD3-H3L3 (antibody, V domains shown)
VH: B1 VH
VL: B1 VL
B10: IgG1-huCD3-H1L3 (antibody, V domains shown)
VH: B1 VH with K13Q, R16G, I80S, S87N
VL: B1 VL
B11: IgG1-huCD3-H1L2 (antibody, V domains shown)
VH: B1 VH with K13Q, R16G, I80S, S87N
VL: B1 VL with D87I, Y89F
B12: IgG1-huCD3-H4L1 (antibody, V domains shown)
VH: B1 VH with L120M
VL: not shown
B13: bsIgG1-huCD3-H4L1xHER2-LFLEDA (bispecific antibody, V domains shown)
VH 1: B1 VH with L120M
VL 1: not shown
VH 2: B5 VH 2
VL 2: B5 VL 2

Biological target: T1, HSC-F
Assay: FACS binding

EC50 [µg/mL]	Binder
0.03	B1
0.02	B2
0.03	B3
0.03	B4

biological target: T2, human CD3 (on the human T-cell line Jurkat or on human T-cells) (human, UniProt P09693 23-182; P20963 22-164); assay: FACS binding
T2 sequence (chain, as listed by the source, chain 1 of 4): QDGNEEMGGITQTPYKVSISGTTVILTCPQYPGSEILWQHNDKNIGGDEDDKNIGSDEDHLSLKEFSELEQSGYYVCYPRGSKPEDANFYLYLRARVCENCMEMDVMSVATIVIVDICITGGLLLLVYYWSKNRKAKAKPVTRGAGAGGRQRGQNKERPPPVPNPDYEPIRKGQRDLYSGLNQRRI
T2 sequence (chain, as listed by the source, chain 2 of 4): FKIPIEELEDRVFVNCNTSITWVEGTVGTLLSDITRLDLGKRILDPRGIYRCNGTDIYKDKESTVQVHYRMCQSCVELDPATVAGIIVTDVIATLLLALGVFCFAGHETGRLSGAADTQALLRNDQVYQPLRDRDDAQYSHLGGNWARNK
T2 sequence (P09693 23-182, chain 3 of 4): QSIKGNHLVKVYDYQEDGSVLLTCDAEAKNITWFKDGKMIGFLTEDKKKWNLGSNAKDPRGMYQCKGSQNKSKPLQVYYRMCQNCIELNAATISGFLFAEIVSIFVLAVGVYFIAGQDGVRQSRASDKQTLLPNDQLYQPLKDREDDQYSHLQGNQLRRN
T2 sequence (P20963 22-164, chain 4 of 4): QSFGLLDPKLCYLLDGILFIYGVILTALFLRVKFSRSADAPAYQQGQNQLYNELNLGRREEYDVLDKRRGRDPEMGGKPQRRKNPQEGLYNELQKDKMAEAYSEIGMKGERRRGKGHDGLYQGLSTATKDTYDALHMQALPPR

EC50 [µg/mL]	Binder
0.58	B5
0.74	B6
0.62	B7
0.59	B8

Biological target: T1, HSC-F
Assay: FACS binding; Fig 2A

EC50 [µg/mL]	Binder
0.11	B9
0.28	B10
0.31	B11
0.26	B12

biological target: T2, human CD3 (on the human T-cell line …); assay: FACS binding; remark: another data set of the same source

EC50 [µg/mL]	Binder
0.08	B1
0.08	B2
0.11	B3
0.06	B4

Biological target: T1, HSC-F
Assay: FACS binding
Remark: another data set of the same source

EC50 [µg/mL]	Binder
0.36	B13

biological target: T2, human CD3 (on the human T-cell line …); assay: FACS binding; Fig 1A

EC50 [µg/mL]	Binder
0.02	B9
0.06	B10
0.08	B11
0.05	B12

Source: US20160168247A1 (published 2016)
